Experimental data as given in the DeepSol protein solubility set.

Assay: soluble on expression in E. coli; label from the status in PepcDB or PDB records

| Sequence | soluble on expression in E. coli |
| --- | --- |
| GSYNKPSETVIPESVDGLQENLDVVVSLAERHYYNCDFKMCYKLTSVVMEKDPFHASCLPVHIGTLVELNKANELFYLSHKLVDLYPSNPVSWFAVGCYYLMVGHKNEHARRYLSKATTLEKTYGPAWIAYGHSFAVESEHDQAMAAYFTAAQLMKGCHLPMLYIGLEYGLTNNSKLAERFFSQALSIAPEDPFVMHEVGVVAFQNGEWKTAEKWFLDALEKIKAIGNEVTVDKWEPLLNNLGHVCRKLKKYAEALDYHRQALVLIPQNASTYSAIGYIHSLMGNFENAVDYFHTALGLRRDDTFSVTMLGHCIEMYIGDSEAYIGADIK | soluble |
| SGKLHSKPAAVCKRRESPEGDSFAVSAAWARKGIEEWIGRQRCPGGVSGPRQLRLAGTIGRSTRELVGDVLRDTLSEEEEDDFRLEVALPPEKTDGLGSGDEKKMERVSEPCPGSKKQLKFEELQCDVSMEEDSRQEWTFTLYDFDNNGKVTREDITSLLHTIYEVVDSSVNHSPTSSKMLRVKLTVAPDGSQSKRSVLVNQADLQSARPRAETKPTEDLRSWEKKQRAPLRFQGDSRLEQSGCYHHCVDENIERRNHYLDLAGIENYTSQFGPGSPSVAQKSELPPRTSNPTRSRSHEPEAIHIPHRKPQGVDPASFHFLDTPIAKVSELQQRLRGTQDGSKHFVRSPKAQGKSVGVGHVARGARNKPPLGPAIPAVSPSAHLAASPALLPSLAPLGHKKHKHRAKESQQGCRGLQAPLASGGPVLGREHLRELPALVVYESQAGQPVQRHEHHHHHEHHHHYHHFYQT | not soluble |
| MLVEEAPVDADLGAAVTRLRALALEALCAGSLSAEQVLDHTRPAALALALAVCTPAEYARPWFRRATGDVRVLLARRLAEELGEDHVRWAAAIDLSGSFAGSVGELLHSDEAPGSVHRFLHPHRSSHATQNLLLALAPRDVAARYLAGLVETRRPNVVAYKMDWMLRSGPLSRPLVARGVGGSVGGQRELLGNDLCPDFVLEQVHGGYARHVMYREIIPPKVLKRAFRAYAASEPAHEVRAWAVSLLGERTDRLMDLAWSLTDAPTLLHRLVAAVLDRADPATLTCLYGALAEAAGPEPVWALDLERAGSLDAVQPAVRASMAAGSAEPLVEAAKRIPRRHWLDVLDEEAFGGQMLRDEAELDRTGHFPLEALVAARLDGRPERWAEVARQVAGGRMPVEAVVEGVVAAAIEEIGESAAKTAPETPTEAAPETTAEAAPQTPAEAAPQTPANAAPQTPTKPAPQPPAASPIAAPPAHAAPSASTT | not soluble |
| MGHHHHHHSHMADVEDGEETCALASHSGSSGSKSGGDKMFSLKKWNAVAMWSWDVECDTCAICRVQVMDACLRCQAENKQEDCVVVWGECNHSFHNCCMSLWVKQNNRCPLCQQDWVVQRIGK | not soluble |
| MGSDKIHHHHHHMKEIVHLQSFLAVARTGSLTLAAEELHVTPSAVSHRLRQLEQRLGAKLLRRTPHGMALTGEGQRFKDRISDPIEAIEMALRPETGQEGPLTVSVMPWFASSWLMPRLKRFQLRCPDARIRIETSSQLSDLAHGHVTAALRFGRGDWPDIEVEPLFDEWVIPVASPDVVAQMGSNAQDPARWPRLPDPDDLWSSWFGDEVMGEAMRSSIELHDTSSLTEAAVNGMGVVLGRYTHVAPWLERGDLVTLASQWIRMPKRHYLVRSRHRPMHSCFPHFRRWLHDEVKKYQTSASSEFY | not soluble |
| PQFGLFSKYRTPNCSQYRLPGCPRHFNPVCGSDMSTYANECTLCMKIREGGHNIKIIRNGPC | soluble |
| MPITWMRMRPWLEMQINSNQIPGLIWINKEEMIFQIPWKHAAKHGWDINKDACLFRSWAIHTGRYKAGEKEPDPKTWKANFRCAMNSLPDIEEVKDQSRNKGSSAVRVYRMLP | soluble |
| MEHWYCTNMVGVPVGLIGSTAFNRCLRRITIHGTRETHPGLFRLLAACEYPATASEVFEHYMELEFGLAPGAHEPTQARYPTSYLDLLRGWGVESDCPKAAVLKGWVESRFGLVPTFHKQRLGLFPSSAWATYLQEKTDVRFHNNCIFQQFDLLYEYCQWSIRRFKTPGPRFVRLWRGTNDVEQQLVEGDARQRLCTVRLNNLVSFSDSKERAEEFGDWVLETEVPTVKLLFFPGLLQRQVLGYEGEFLVIGGNYKVRAYHGWFLEHHHHHH | soluble |
| MGEISLGEVFHLKSGKYLKADERFEDGKFPYYGAGIESTSFVNEPNTKGDTLSMIANGYSIGNIRYHTIPWFNGTGGIAMEALKPNKTYVPFFYCALKYMQKDLKERFKRDESPFISLKLAGEIKVPFVKSFALQRKAGKIIYLLDK | not soluble |
| MAITVKGLTNKLTRTQRRIAVVEFIFSLLFFLPKEAEVIQADFLEYDTKERQLNEWQKLIVKAFSENIFSFQKKIEEQQLKNQLEIQTKYNKISGKKIDLLTTAVVLCALSEQKAHNTDKPLLISEALLIMDHYSQGAEKKQTHALLDKLL | soluble |
| MKIIARDRGTGKTTELVKESARTGQYILASNKSHVRAIEQIAKKAGVTIPYPVTVDEIVSMDRFTCASSIQRDGLLVDEAIMVLSKLIGLKITGATISLEGEQQC | not soluble |
| MAHHHHHHMDDRDAELDIDEDGIFTCEEVNALTSAMWKAEGLTRVPRSRRHHRQAPPQQRTSAAAVDSLQPGPLAASTTTPGGGSVTDVTLQPLLNTTGEDGGHRSLGGDIRGLPSSFSNAPLFASATTTAAGLSSTSSPQPTSQALHHHHNDVDRQLGGNSNTSGRRMAGGGGSVGGEGSRSSSSVYEVLIQRVLAMDTASDIWSLGVLLYGMCADTADAQQQEEQQQHQASASTTTPTLNPPHATAAGSSPVRAHEGVAGTLPPAMPTCTCASRLAQRAFAALLGDLYDLAVTGVPSGDRGNNGWSCDGVDVEQLDEAADDHLRWPRSCALEEEVMQAIGEAGYTHVFASVLASMLSPVAARRPSAGDIVNQLRLVTTGAPATLASNIMRGGGGGLADADDEYSVARQSPPPRIQHSGGASDATSSVMLHEQTACMALRQR | not soluble |
| MNMALISLAIDYKKSPIEVRSEFALSGLDVSMLYRSILAIDNVVHAVILSTCNRTEVYLEISDLRVVDDILVWWQGYVRNPNYKIKDYFKLRQGTEVIMHLMKLACGLESMVLGEPQILGQVKDSYTLSKKNHAIGKELDRVFQKVFATAKRVRSETRIGHCPVSVAFSAITLAKRQLDNISSKNVLIIGAGQTGELLFRHVTALAPKQIMLANRTIEKAQKITSAFRNASAHYLSELPQLIKKADIIIAAVNVLEYIVTCKYVGDKPRVFIDISIPQALDPKLGELEQNVYYCVDDINAVIEDNKDKRKYESSKAQKIIVKSLEEYLEKEKAIISNSAIKELFQKADGLVDLSLEKSLAKIRNGKDAEEIIKRFAYEIKKKVLHYPVVGMKEASKQGRSDCLVCMKRMFGLNVEK | not soluble |
| MFISVVIPTYDRQPILEKCLRALEAQQLSASTVINEYEIVLVDDGSTDGTLDWLATHKEEFPHVRWFEQDHAGPAAARNLGVEKARGDIIIFIDSDLVVLDNFLQAHADALLQGQEKLGSDRFFTYGAVINTCNFDNPTAEPYKITDFSAAFFATGNVAIPKHWLEQAGLFDTGFQLYGWEDLELGVRLKNLGLQLIKCPAAVGYHWHPPFNLEQVPNLIEKEIQRGRMGVLFYKKHPTWEVRMMIQMTWLHRLLWGILSLNGALNENTMAPLLQWLIKSGKPQLALEIARIFLNWYNVKGVYQAYSQMQKVSLEHHHHHH | soluble |
| MRWDIFCHVVDNYGDIGICWRLARQLVTEFDISVRMLVDDLGAMQRICPAIDPRLAVQNIRGVEILHWVEPFADLVPADVVIEAFGCELPPRYIAAMAAASPRFSEPEGKTDRIWINLEYLSAEQWVEGCHGLASPHPSLPLIKYFFFPGFTAATGGLLREAELFTLRDASRTDPAGLWRELGITNPAADEATVSLFCYDSAPISDLLEAWAGSISPVRCLLPEGTASASAASWAGISRLAAGDSIQRGNLTLHVIPFMSQENYDHLLWACDCNFVRGEDSFVRAQWAVRPIVWQIYPQQENVHLIKLEAFLDLYCQELIEPAADAVRAFHRSWNNNEQPDWNCFWKYRDVLQQHAMAWAERLAQIPNLASSLVNFCRNR | not soluble |
| MAATCSWKTCEETEQNTFIVKFSNGNVKNAEELDFTVFKHSNASNPRKKNRRIVVADSDRLPYVGSNFGSGSLQSNNMCKYFVGVLDKQTMQMKVHSAQLFNMLPVIPGEATEAESENQPSTFRDKVDALIEAFGTNKQKRALSSRRLNAVGNETLHQAVAQAASNIIDQKGVEALRNEVIETEAQSDAALFLPPCNANADKLEDVYPFDQLLTPNEFESLKEVGAKYATLSSEDLQKMRDNHCPQTVLKHLETLSKDEADRDRQCRCAWYLSFVIRASLQKRISFKFGSDDGCPRIIINKVLKNFTVESFHNGSLRNTVSMSMRMKMASYCLALLLHMGGQTANLTLLHRDMSISENKMLEVAKAMGLTLSRQNALGKEGGLIEDEHRMVSLVLPLVHYDRRTERKKRKRMN | soluble |
| HHHHHHENLYFQGSMDALQLANSAFAVDLFKQLSEKEPLGNVLFSPIALSTSLSLAQVGAKGDTANEIGQVLHFENVKDVPFGFQTVTSDVNKLSSFYSLKLIKRLYVDKSLNLSTEFISSTKRPYAKELETVDFKDKLEETKGQINNSIKDLTDGHFENILADNSVNDQTKILVVNAAYFVGKWMKKFSESETKESPFRVNKTDTKPVQMMNMEATFSMGNIDSINSKIIELPFQNKHLSMFILLPKDVEDESTGLEKIEKQLNSESLSQWTNPSTMANAKVKLSIPKFKVEKMIDPKASLENLGLKHIFSEDTSDFSGMSETKGVALSNVIHKVSLEITEDGGDSIEVPGARILQHKDELNADHPFIYIIRHNKTRNIIFFGKFSSP | soluble |
| MGSDKIHHHHHHMNQATRNVLWMTGIKKSFSGVPALWGVDFELKAGEIHALVGENGAGKSTLIKIMTGAYRRDSGVMEYDQKTVAFENPIQAQAAGIVAVYQEIQLVGLRTVAENIFLSREPNRFGIIDRRAMNARAADILKRLGLHIDPHSVVGSLNIAHRQMVAIARAISFGARVLILDEPTSSLTKTEVSVLFDVMRRLKSEGTSIVYISHRFEELYTVCDRVTVLRDGRNIVTRSLSMLTRLELVCFMLGRKPEEVSKRVTAFARQSQNMLGQPVLLQAEALKYKKRLNGVSIEVQHGEIVGLAGLLGSGRSETVRALFGAEPLEGGTVKLEGSLLSLRDPHDAIDAGIAFLSEDRKADGIIPELSVRENLTLAALPNLTQWGIVSKKRQSELALRFMERLDIKAASIEQKIRFYTNSGCNYDSSDRGSFLLYPLYAFRPSYRCSRRQRGGCTACGYPCGAREIYSLYN | not soluble |
| NTLKAGQTQSFNDWFPDDNFASEVAAAFEMQATDTISEEQLATLTSLDCHNSSITDMTGIEKLTGLTKLICTSNNITTLDLSQNTNLTYLACDSNKLTNLDVTPLTKLTYLNCDTNKLTKLDVSQNPLLTYLNCARNTLTEIDVSHNTQLTELDCHLNKKITKLDVTPQTQLTTLDCSFNKITELDVSQNKLLNRLNCDTNNITKLDLNQNIQLTFLDCSSNKLTEIDVTPLTQLTYFDCSVNPLTELDVSTLSKLTTLHCIQTDLLEIDLTHNTQLIYFQAEGCRKIKELDVTHNTQLYLLDCQAAGITELDLSQNPKLVYLYLNNTELTELDVSHNTKLKSLSCVNAHIQDFSSVGKIPALNNNFEAEGQTITMPKETLTNNSLTIAVSPDLLDQFGNPMNIEPGDGGVYDQATNTITWENLSTDNPAVTYTFTSENGAIVGTVTTPFEAPQPIK | soluble |
